According to patent publication US20130149306A1, “Antagonists of Sema3E/PlexinD1 interaction as anti-cancer agents” (NETRIS PHARMA, priority 2010, published 2013):
Each block holds one molecule with its values, some of them ahead of it.

What was measured:
[1] = biological target: T1, in vitro translated intracellular domain of PlexinD1 (hPlexinD1 aa 1293 to 1925) (UniProt Q9Y4D7)
T1 sequence: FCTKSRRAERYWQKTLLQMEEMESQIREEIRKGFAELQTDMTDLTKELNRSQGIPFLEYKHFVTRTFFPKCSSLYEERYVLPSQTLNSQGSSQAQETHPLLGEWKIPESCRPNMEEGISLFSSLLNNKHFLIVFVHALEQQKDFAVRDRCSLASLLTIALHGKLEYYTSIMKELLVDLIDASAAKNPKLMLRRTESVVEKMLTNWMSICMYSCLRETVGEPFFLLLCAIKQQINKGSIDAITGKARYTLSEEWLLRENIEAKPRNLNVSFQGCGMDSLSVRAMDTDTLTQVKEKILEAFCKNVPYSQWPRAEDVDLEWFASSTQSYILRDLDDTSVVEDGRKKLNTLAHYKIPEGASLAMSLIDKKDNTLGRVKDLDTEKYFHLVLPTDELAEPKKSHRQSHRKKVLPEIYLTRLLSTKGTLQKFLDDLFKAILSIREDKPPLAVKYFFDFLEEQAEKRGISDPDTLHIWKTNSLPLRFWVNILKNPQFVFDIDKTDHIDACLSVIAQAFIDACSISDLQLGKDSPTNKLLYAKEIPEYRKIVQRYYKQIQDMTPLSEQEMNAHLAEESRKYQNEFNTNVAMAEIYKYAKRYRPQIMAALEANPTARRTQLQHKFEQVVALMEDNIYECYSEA

[2] = biological target: PlexinD1-IC D1471N/D1624N (UniProt Q9Y4D7)
[3] = biological target: T2, Sema3E (as printed in the displacement assay and as 'exogenous Sema3E' or Sema3E expression vector in the … (Mus musculus (Mouse), UniProt P70275 26-775)); experiment: displacement of Sema3E binding to PlexinD1-expressing HEK293T cells by SD1 in conditioned medium (1-12 nM)
T2 construct: The methods describe production of mouse AP-Sema3E, which may be the one used in the displacement assay; also called Sema3E ligand; not shown: Alkaline phosphatase (AP) fusion partner, and a His tag if the AP-Sema3E-his construct was used
T2 sequence: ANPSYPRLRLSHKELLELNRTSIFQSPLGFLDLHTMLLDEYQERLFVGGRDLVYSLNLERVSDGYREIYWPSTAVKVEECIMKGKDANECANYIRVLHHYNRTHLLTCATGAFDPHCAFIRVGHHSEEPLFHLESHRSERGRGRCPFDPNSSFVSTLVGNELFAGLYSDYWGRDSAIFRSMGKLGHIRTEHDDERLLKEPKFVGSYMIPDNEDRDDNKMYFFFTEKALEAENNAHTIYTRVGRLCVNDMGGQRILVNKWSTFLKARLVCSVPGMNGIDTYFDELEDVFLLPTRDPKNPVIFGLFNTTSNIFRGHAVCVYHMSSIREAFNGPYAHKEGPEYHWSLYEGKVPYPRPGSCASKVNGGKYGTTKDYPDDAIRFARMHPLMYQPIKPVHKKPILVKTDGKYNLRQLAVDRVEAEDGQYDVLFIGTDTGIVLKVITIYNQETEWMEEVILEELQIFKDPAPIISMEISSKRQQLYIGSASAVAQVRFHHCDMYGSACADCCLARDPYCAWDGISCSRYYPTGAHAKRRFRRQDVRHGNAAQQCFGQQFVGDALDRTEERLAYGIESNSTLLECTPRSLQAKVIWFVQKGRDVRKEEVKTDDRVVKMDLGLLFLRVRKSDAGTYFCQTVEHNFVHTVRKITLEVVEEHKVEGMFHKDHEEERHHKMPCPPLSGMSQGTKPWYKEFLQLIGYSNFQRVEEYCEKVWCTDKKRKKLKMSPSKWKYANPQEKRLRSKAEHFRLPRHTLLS

Molecule: purified active caspase-3
in vitro cleavage by active caspase-3 (autoradiography) [1]: the intracellular domain of PlexinD1 is cleaved by caspase-3, resulting in five protein products that migrate at apparent molecular weight of 16, 24, 30, 37 and 50 kDa
in vitro cleavage by active caspase-3 (autoradiography) [2]: Mutation of both aspartic acid residues to asparagine (N) within the intracellular domain of PlexinD1 completely suppressed caspase-3 cleavage

IC50 [3]: 5.05 nM
B1: SD1 (sema domain of mouse PlexinD1, aa 61 to 531, fused in frame with six myc epitope tags) (receptor, UniProt Q3UH93 61-531, looked up, not shown: small tags and cut ends)
chain: TNNFALDGTAGTVYLAAVNRLYQLSSANLSLEAEATVGPVPDSPLCHAPQLPQASCEHPRRLTDNYNKILQLDPGQGLVVACGSIYQGLCQLRRRGNISALAVSFPPAAPTAEPVTVFPSMLNVAANHPNASTVGLVLPPTSGTGGSRLLVGATYTGFGSAFFPRNRSLEDHRFENTPEIAIRSLDARGDLAKLFTFDLNPSDDNILKIKQGAKEQHKLGFVRAFLHPAVPPHSAQPYAYLALNSEARAGDKDSQARSLLARICLPRGAGGDAKKLTESYIQLGLQCAGGAGRGDLYSRLVSVFPAREQFFAVFERPQGAPGARNAPAALCAFRFDDVQAAIRAARTACFVEPAPDVVAVLDSVVQGTGPACESKRNIQLQPEQLDCGAAHLQHPLTILQPLRASPVFRAPGLTAVAVASANNYTAVFLGTATGRLLKISLNESMQVVSRRVLTVAYGEPVHHVMQFDPMD
notes: range 61-531; The construct starts with the Ig k-chain secretion signal peptide, left out here as it is a secretion signal; also called SD1 polypeptide; myc-tagged SD1
